We go through 5 molecules from patent publication US20240294634A1 (INNATE PHARMA, published 2024).

The target in assay [1] is T1, ILT2 mutant 6 (human, UniProt Q8NHL6 24-650).
T1 construct: Transfected in HEK-293T cells
The assay can be described thus: flow cytometry, HEK293T cells with ILT2 mutant. (In general: In flow cytometry, cells or beads pass a laser one at a time.)

Assay [2] concerns the target T2, ILT2 mutant 4-1 (human, UniProt Q8NHL6 24-650).
T2 construct: Transfected in HEK-293T cells
Kind of assay: flow cytometry, HEK293T cells with ILT2 mutant.

The target in assay [3] is T3, ILT2 mutant 4-2 (human, UniProt Q8NHL6 24-650).
T3 construct: Transfected in HEK-293T cells
T3 sequence (Q8NHL6 other isoform, or with tags, fused parts or gaps mutant): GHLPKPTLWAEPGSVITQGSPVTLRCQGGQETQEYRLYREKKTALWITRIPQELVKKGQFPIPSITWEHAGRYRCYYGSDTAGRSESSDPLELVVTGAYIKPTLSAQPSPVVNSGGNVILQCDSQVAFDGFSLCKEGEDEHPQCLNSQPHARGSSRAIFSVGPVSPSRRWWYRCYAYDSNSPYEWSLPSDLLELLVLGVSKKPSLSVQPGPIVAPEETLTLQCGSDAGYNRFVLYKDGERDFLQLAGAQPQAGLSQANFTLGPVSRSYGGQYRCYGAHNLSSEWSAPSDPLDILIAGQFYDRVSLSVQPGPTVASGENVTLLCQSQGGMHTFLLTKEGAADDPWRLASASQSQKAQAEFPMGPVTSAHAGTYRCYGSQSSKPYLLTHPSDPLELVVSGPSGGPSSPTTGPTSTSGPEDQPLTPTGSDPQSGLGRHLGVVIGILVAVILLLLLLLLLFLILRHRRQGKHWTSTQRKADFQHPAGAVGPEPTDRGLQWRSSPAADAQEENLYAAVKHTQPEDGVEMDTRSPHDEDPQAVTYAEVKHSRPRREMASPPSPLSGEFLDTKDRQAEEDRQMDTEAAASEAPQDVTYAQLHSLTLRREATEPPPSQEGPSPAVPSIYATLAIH
Kind of assay: flow cytometry, HEK293T cells with ILT2 mutant.

Assay [4] concerns the target T4, ILT2 mutant 4 (human, UniProt Q8NHL6 24-650).
T4 construct: Transfected in HEK-293T cells
Kind of assay: flow cytometry, HEK293T cells with ILT2 mutant.

Assay [5] deals with T5, ILT2 mutant 3b (human, UniProt Q8NHL6 24-650).
T5 construct: Transfected in HEK-293T cells
T5 sequence (Q8NHL6 other isoform, or with tags, fused parts or gaps mutant): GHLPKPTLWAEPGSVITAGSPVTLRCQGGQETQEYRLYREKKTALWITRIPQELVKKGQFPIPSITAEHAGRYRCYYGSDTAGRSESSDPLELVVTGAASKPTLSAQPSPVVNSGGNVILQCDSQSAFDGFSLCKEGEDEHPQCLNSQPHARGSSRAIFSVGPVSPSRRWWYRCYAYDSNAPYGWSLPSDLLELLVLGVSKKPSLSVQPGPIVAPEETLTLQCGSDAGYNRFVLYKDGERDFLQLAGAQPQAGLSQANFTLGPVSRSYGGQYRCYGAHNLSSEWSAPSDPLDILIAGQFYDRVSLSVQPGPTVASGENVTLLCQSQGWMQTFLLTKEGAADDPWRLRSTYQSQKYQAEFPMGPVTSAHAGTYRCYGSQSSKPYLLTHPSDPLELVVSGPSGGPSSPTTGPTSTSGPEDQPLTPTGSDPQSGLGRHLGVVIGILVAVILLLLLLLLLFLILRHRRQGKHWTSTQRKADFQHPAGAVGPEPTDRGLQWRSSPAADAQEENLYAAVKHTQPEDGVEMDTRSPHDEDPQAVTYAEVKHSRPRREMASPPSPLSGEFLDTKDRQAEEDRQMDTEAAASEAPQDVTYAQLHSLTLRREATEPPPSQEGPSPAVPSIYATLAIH
The assay can be described thus: flow cytometry, HEK293T cells with ILT2 mutant.

The target of assay [6] is T6, ILT2 mutant 8 (human, UniProt Q8NHL6 24-650).
T6 construct: Transfected in HEK-293T cells
The assay can be described thus: flow cytometry, HEK293T cells with ILT2 mutant.

In assay [7] the target is T7, ILT2 mutant 4-5 (human, UniProt Q8NHL6 24-650).
T7 construct: Transfected in HEK-293T cells
The assay can be described thus: flow cytometry, HEK293T cells with ILT2 mutant.

Assay [8] has as its target T8, ILT2 mutant 4-3 (human, UniProt Q8NHL6 24-650).
T8 construct: Transfected in HEK-293T cells
The assay can be described thus: flow cytometry, HEK293T cells with ILT2 mutant.

The target of assay [9] is T9, ILT2 mutant 3 (human, UniProt Q8NHL6 24-650).
T9 construct: Transfected in HEK-293T cells
T9 sequence (Q8NHL6 other isoform, or with tags, fused parts or gaps mutant): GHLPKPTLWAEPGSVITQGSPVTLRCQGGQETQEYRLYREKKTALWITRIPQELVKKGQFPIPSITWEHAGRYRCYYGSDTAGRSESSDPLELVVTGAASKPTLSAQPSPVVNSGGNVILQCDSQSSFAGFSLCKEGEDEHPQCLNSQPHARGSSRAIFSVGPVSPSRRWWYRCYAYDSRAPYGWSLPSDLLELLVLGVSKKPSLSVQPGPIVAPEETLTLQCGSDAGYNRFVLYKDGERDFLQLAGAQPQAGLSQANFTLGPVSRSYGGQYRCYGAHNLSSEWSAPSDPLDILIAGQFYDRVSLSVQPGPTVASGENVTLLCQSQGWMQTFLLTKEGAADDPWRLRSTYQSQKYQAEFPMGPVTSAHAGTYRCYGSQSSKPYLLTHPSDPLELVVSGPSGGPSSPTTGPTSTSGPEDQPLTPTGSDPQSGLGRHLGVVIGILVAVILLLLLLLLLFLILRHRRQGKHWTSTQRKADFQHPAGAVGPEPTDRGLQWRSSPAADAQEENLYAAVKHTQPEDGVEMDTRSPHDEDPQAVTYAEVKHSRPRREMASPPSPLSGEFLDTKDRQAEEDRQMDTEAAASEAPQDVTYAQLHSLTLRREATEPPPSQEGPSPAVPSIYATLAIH
Kind of assay: flow cytometry, HEK293T cells with ILT2 mutant.

The target of assay [10] is T10, ILT2 mutant 7 (human, UniProt Q8NHL6 24-650).
T10 construct: Transfected in HEK-293T cells
Kind of assay: flow cytometry, HEK293T cells with ILT2 mutant.

Assay [11] has as its target T11, ILT2 mutant 5 (human, UniProt Q8NHL6 24-650).
T11 construct: Transfected in HEK-293T cells
Kind of assay: flow cytometry, HEK293T cells with ILT2 mutant.

In assay [12] the target is T12, ILT2 mutant 4-1b (human, UniProt Q8NHL6 24-650).
T12 construct: Transfected in HEK-293T cells
T12 sequence (Q8NHL6 other isoform, or with tags, fused parts or gaps mutant): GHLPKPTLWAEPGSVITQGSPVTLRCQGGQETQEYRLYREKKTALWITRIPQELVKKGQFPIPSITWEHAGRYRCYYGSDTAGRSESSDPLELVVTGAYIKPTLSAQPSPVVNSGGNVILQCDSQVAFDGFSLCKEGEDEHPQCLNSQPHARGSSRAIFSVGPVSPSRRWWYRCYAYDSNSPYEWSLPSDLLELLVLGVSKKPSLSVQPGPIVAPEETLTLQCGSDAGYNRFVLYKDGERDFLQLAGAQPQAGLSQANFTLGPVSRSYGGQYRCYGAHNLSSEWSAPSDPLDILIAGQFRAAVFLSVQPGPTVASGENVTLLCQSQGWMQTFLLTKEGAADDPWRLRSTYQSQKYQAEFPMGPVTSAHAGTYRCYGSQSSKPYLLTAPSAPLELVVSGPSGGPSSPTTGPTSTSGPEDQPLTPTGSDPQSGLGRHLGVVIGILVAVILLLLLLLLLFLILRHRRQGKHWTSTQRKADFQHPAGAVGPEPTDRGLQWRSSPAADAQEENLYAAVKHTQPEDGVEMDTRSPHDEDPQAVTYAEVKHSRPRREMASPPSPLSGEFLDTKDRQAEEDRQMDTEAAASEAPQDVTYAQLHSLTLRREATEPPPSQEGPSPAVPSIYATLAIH
Kind of assay: flow cytometry, HEK293T cells with ILT2 mutant.

Assay [13] addresses T13, ILT2 mutant 4-4 (human, UniProt Q8NHL6 24-650).
T13 construct: Transfected in HEK-293T cells
Kind of assay: flow cytometry, HEK293T cells with ILT2 mutant.

The target in assay [14] is T14, ILT2 mutant 2 (human, UniProt Q8NHL6 24-650).
T14 construct: Transfected in HEK-293T cells; also called M2
T14 sequence (Q8NHL6 other isoform, or with tags, fused parts or gaps mutant): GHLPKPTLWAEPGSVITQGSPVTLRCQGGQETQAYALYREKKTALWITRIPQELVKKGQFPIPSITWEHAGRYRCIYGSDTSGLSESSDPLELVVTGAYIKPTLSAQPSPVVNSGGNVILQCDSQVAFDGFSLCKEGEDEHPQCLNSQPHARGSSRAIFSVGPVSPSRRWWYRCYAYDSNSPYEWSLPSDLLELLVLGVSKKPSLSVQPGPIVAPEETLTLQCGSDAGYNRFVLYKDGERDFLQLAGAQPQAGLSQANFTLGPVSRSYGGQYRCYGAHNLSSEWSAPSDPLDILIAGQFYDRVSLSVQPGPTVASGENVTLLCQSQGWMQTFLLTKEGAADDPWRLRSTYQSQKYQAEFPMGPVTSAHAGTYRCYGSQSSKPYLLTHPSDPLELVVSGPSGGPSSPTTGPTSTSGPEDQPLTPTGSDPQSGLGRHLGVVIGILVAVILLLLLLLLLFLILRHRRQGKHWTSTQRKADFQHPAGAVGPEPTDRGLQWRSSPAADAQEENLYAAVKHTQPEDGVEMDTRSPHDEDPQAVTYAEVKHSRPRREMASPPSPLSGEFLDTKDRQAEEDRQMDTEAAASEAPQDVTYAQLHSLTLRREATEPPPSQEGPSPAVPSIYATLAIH
The assay can be described thus: flow cytometry, HEK293T cells with ILT2 mutant.

For assay [15], the target named is T15, Human ILT-2 (complete form) expressed at the cell surface (human, UniProt Q8NHL6 24-650).
T15 construct: also called LILRB1; CHO-ILT2
T15 sequence (Q8NHL6 24-650): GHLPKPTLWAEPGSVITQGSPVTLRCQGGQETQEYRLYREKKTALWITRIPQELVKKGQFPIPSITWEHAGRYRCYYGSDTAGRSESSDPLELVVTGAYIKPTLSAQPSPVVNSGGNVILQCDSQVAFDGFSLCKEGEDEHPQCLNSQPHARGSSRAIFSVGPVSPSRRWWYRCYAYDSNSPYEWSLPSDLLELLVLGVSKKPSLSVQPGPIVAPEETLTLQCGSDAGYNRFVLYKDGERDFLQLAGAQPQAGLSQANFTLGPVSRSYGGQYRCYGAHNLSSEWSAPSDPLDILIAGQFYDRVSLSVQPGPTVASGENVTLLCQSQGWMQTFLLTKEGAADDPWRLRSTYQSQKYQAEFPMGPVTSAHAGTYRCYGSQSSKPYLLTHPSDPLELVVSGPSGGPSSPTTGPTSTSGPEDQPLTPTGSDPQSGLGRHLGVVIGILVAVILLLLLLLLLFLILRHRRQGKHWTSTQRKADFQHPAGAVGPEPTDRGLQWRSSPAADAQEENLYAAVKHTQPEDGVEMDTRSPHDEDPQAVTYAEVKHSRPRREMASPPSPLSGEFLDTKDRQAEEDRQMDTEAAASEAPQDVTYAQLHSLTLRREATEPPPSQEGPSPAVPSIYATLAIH
The assay can be described thus: flow cytometry titration on cells transfected with wild-type ILT2 (WT).

Assay [16] concerns the target T16, ILT-2_6×His recombinant protein (human, UniProt Q8NHL6 24-458).
T16 construct: also called recombinant 6×HIS tagged ILT2; recombinant human ILT2 proteins
The assay can be described thus: SPR, mAb captured on Protein-A, soluble ILT2 analyte. The procedure:
Measurements were performed on a Biacore T200 apparatus (Biacore GE Healthcare) at 25° C. In all Biacore experiments HBS-EP+ (Biacore GE Healthcare) and NaOH 10 mM served as running buffer and regeneration buffer respectively. Sensorgrams were analyzed with Biacore T100 Evaluation software. Protein-A was purchased from (GE Healthcare). Human ILT2 recombinant proteins were cloned, produced and purified at Innate Pharma. Protein-A proteins were immobilized covalently to carboxyl groups in the dextran layer on a Sensor Chip CM5. The chip surface was activated with EDC/NHS (N-ethyl-N′-(3-dimethylaminopropyl) carbodiimidehydrochloride and N-hydroxysuccinimide (Biacore GE Healthcare)). Protein-A was diluted to 10 μg/ml in coupling buffer (10 mM acetate, pH 5.6) and injected until the appropriate immobilization level was reached (i.e. 2000 RU). Deactivation of the remaining activated groups was performed using 100 mM ethanolamine pH 8 (Biacore GE Healthcare). […] For blank subtraction, cycles were performed again replacing ILT2 proteins with running buffer. The monovalent affinity analysis was conducted following a regular Capture-Kinetic protocol as recommended by the manufacturer (Biacore GE Healthcare kinetic wizard). Seven serial dilutions of human ILT2 proteins, ranging from 6.25 to 400 nM were sequentially injected over the captured antibodies and allowed to dissociate for 10 min before regeneration. The entire sensorgram sets were fitted using the 1:1 kinetic binding model.
Background: In SPR one partner is held on a chip, and binding of the other changes the refractive index at the surface.

T16 sequence (Q8NHL6 other isoform, or with tags, fused parts or gaps limits assumed): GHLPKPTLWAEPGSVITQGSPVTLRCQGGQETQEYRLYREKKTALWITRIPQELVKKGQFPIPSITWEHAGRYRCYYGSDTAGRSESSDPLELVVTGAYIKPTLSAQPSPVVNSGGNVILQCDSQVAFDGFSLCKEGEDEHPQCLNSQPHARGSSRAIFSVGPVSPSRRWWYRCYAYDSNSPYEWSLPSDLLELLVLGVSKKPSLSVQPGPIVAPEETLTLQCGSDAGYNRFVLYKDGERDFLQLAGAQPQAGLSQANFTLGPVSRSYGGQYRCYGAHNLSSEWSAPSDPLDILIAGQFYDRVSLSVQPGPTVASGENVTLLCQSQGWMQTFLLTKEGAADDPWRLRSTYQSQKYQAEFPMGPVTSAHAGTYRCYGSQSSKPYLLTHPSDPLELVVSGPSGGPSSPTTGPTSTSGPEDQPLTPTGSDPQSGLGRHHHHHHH
T8 sequence (Q8NHL6 other isoform, or with tags, fused parts or gaps mutant): as the sequence (Q8NHL6 24-650) above, with Q324A, Q326S, S352A, Q353H, K354A counted along it

B1: 12D12 (antibody, human IgG1, V domains shown)
VH: QVQLQQPGAELVKPGASVRMSCKASGYTFTSYWVHWVKQRPGQGLEWIGVIDPSDSYTSYNQNFKGKATLTVDTSSKTAYIHLSSLTSEDSAVYFCARGERYDGDYFAMDYWGQGTSVTVSS
VL: DIVMTQSPASLSVSVGETVTITCRASENIYSNLAWYQQKQGKSPQLLVYAATNLADGVPSRFSGSRSGTQYSLKINSLQSEDFGTYYCQHFWNTPRTFGGGTKLEIK
notes: also called 12012
As to B1, the binding result in [1], in assay [2], in [3], in assay [4], in assay [5] and in [6] was “binds” each time. Moreover, the binding result in [7], in assay [8], in [9], in assay [10], in [11] and in assay [12] was “binds” throughout. The binding result in assay [13] was “binds”.

B2: 2H2A (antibody, V domains shown)
VH: EVKLEESGPELVKPGASVKLSCKASGYTFTNYYMQWVKQRPGQGLEWIGWIFPGSGESSYNEKFKGKATLSADTSSTTAYMQLSSLTSEDSAVYFCARTWNYDARWGYWGQGTTLTVSS
VL: DILMTQSPASLAVSLGQRATISCIPSESIDSYGISFMHWYQQKPGQPPKLLIYRASNLESGIPARFSGSGSRTDFTLTINPVEADDVATYYCQQSNEDPFTFGSGTKLELK
Consider B2, for which, in [14], the binding result is “no binding”.

B3: 3H5 (antibody, human IgG1, V domains shown)
VH: QVQLKESGPGLVAPSQSLSITCTVSGFSLTSYGVSWVRQPPGKGLEWLGVIWGDGSTNYHSALISRLSISKDNSKSQVFLKLNSLQTDDTATYYCAKPRWDDYAMDYWGQGTSVTVSS
VL: DIQMTQTTSSLSASLGDRVTISCRASQDISNYLNWYQQKPDGTVKLLIYYTSRLHSGVPSRFSGSGSGTDYSLTISNLEQEDIATYFCQQGNTLWTFGGGTKLEIK
With B3, in [15], the EC50 (read off the curve) (as a rule, the concentration at which the effect is half-maximal) is roughly 1 µg/mL. Moreover, the kon (commonly the rate constant with which the complex forms) in assay [16] worked out at 280000 M⁻¹ s⁻¹.

B4: 27H5 (antibody, human IgG1, V domains shown)
VH: QVQLKESGPGLVAPSQSLSITCTVSGFSLTSYGVSWVRQPPGKGLEWLGVIWGDGNTNYHSALISRLSISKDNSKSQVFLKLNSLQTDDTATYYCARTNWDGWFAYWGQGTLVTVSA
VL: DIVMTQSHKFMSTSVGDRVSITCKASQDVGTAVAWYQQKPGQSPKLLIYWASTRHTGVPDRFTGSGSGTDFTLTISNVQSEDLADYFCQQYRSYPLGTFGGGTKLEIK
Regarding B4, in assay [16], the kon was determined as 660000 M⁻¹ s⁻¹.

B5: 18E1 (antibody, human IgG1, V domains shown)
VH: QVQLQQSGAELVKPGASVRLSCKASGYTFTAHTIHWVKQRSGQGLEWIGWLYPGSGSIKYNEKFKDKATLTADKSSSTVYMELSRLTSEDSAVYFCARHTNWDFDYWGQGTTLTVSS
VL: NIVLTQSPASLAVSLGQRATISCKASQSVDYGGASYMNWYQQKPGQPPKLLIYAASNLESGIPARFSGSGSGTDLTLNIHPVEEEDAAMYYCQQSNEEPWTFGGGTKLEIK
Regarding B5, in [16], the kon stood at 750000 M⁻¹ s⁻¹.
